Results taken from article PMC11104707.

B1: N-terminal half of ubiquitin-fused talin head domain (N-Ub-THD), wild type [not stated] / integrin β3 transmembrane domain-tail fused to the C-terminal half of ubiquitin (C-Ub) [not stated] (parent)
chain 1: MVALSLKISIGNVVKTMQFEPSTMVYDACRMIRERIPEALAGPPNDFGLFLSDDDPKKGIWLEAGKALDYYMLRNGDTMEYRKKQRPLKIRMLDGTVKTIMVDDSKTVTDMLMTICARIGITNHDEYSLVRELMEEKKDEGTGTLRKDKTLLRDEKKMEKLKQKLHTDDELNWLDHGRTLREQGVEEHETLLLRRKFFYSDQNVDSRDPVQLNLLYVQARDDILNGSHPVSFDKACEFAGFQCQIQFGPHNEQKHKAGFLDLKDFLPKEYVKQKGERKIFQAHKNCGQMSEIEAKVRYVKLARSLKTYGVSFFLVKEKMKGKNKLVPRLLGITKECVMRVDEKTKEVIQEWSLTNIKRWAASPKSFTLDFGDYQDGYYSVQTTEGEQIAQLIAGYIDIILKKKKSKDHFGLEGDEESTMLEDSVSPKKSTVLQ
chain 2: ILVVLLSVMGAILLIGLAALLIWKLLITIHDRKEFAKFEEERARAKWDTANNPLYKEATSTFTNITYRGT

Variants of: B1
Assay: mammalian two-hybrid (split-ubiquitin) assay, GFP expression read by flow cytometry
Settings: with integrin β3 transmembrane domain-tail fused to the C-terminal half of ubiquitin (C-Ub); CHO cells stably incorporated with 5xGAL4-UAS and the integrin β3 TMD-tail construct; Empty control 0.23 %, N-Ub-THD(ΔF3) 1.96 %; parent: 7.9

Variant | response (% GFP-expressing cells)
chain 1 K322D | 2.28
